The results in this text go back to US20250282881A1 (SHANGHAI EPIMAB BIOTHERAPEUTICS, published 2025).

Usually Kd stands for the free concentration of one partner at which half of the binding sites on the other are occupied at equilibrium, for simple one-to-one binding. In general, koff refers to a measure of how fast the partners let go of each other. A word on the kon: it is the second-order rate constant of association. As usually defined, the EC50 (read off the curve) is the concentration at which the effect is half-maximal.

The target of test [1] is Cyno OX40 (protein analyte in BLI, Table 10) (cyno). Description: BLI (Octet Red96), FIT1014-20a on AHC sensor, cyno OX40 as analyte.
Test [2] concerns the target recombinant cyno PD-L1-his protein (cyno, UniProt G7PSE7 19-239). Description: BLI (Octet Red96), FIT1014-20a on AHC sensor, cyno PD-L1-his as analyte. The method, then: (§1) The PD-L1 binding activities of FIT1014-20a were detected by biolayer interferometry using an Octet® Red sensing device (ForteBio, Red96). […] The association and dissociation curves were fitted to a 1:1 Langmuir binding model using FortéBio Data Analysis software (Pall) to produce kinetic rate constants Kon and Koff. The equilibrium dissociation constant KD (M) of the reaction between antibodies and related target proteins was then calculated by KD=koff/kon.

Test [3] deals with T1, human PD-L1 on cells (CHO-PD-L1, CHO-PD-L1-OS8) (human, UniProt Q9NZQ7 19-290).
T1 construct: whole, on cells; also called PD-L1 over-expressing cells; CD274
T1 sequence (Q9NZQ7 19-290): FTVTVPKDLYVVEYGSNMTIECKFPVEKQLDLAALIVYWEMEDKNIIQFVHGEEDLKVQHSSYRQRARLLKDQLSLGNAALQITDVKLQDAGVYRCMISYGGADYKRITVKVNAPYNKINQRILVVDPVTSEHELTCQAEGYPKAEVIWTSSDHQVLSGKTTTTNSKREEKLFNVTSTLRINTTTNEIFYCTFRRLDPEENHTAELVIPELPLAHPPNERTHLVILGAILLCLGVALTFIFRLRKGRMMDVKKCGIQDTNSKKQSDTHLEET
Nature of the test: cell-based receptor blocking assay, FACS: antibody against PD-1-mFc binding to CHO-PD-L1 cells, anti-mouse IgG detection. The method, then:
Blocking of PD-1/PD-L1 binding was assessed in a cell based receptor blocking assay (RBA), 100 μl of 2×10⁵ cells/well of CHO-PD-L1 cells were added to a 96-well round-bottomed plate (Corning, Cat #3799), 50 μl serial diluted of antibody at 0.016 nM to 50 nM and 50 μl of 50 μg/ml PD-1-mFc (Novoprotein, #C754) were added to each well, mixed gently then incubated at 4° C. for 1 hour. The cells were washed and stained by Alexa Fluor® 647 anti-mouse IgG (1:500, Jackson ImmunoResearch, #115-606-008). Signals were read out by FACS and curves were fitted by GraphPad Prism 8.0.

Test [4] has as its target T2, recombinant human PD-L1/His fusion protein (Novoprotein, Cat. No. C315) (human, UniProt Q9NZQ7 19-239).
T2 construct: also called recombinant human PD-L1-his protein
Description: BLI (Octet Red96), FIT1014-20a on AHC sensor, human PD-L1-his as analyte. The method, then: as §1
(In BLI a coated tip is dipped into the sample, and binding shifts an interference pattern.)

The target of test [5] is T1, human PD-L1 on cells (CHO-PD-L1, …). Nature of the test: FACS on CHO-PD-L1 cells, Alexa Fluor 647 anti-human IgG, MFI. The method, then: Cell binding affinity of PD-L1/OX40 antibodies were measured against CHO (ATCC, #CCL-61) overexpressing human PD-L1 (CHO-PD-L1) and CHO overexpressing OX40 (CHO-OX40), respectively. Briefly, 5×10⁵ cells were seeded into each well of a 96-well plate (Corning, #3799). Cells were centrifuged at 400 g for 5 minutes and supernatants were discarded. For each well, 100 μl of 3× serial dilution of antibodies starting from 100 nM were then added and mixed with the cells. After 60 minutes of 4° C. incubation, plates were washed several times to remove excess antibodies. […] After another round of centrifugation and washing, cells were resuspended in FACS buffer for reading on a CytoFLEX Flow Cytometer (Beckman Coulter). Median Fluorescence Intensity (MFI) readouts were plotted against antibody concentration and analyzed with GraphPad Prism 8.0.

recombinant cyno PD-L1-his protein, sequence (G7PSE7 entry or part of it): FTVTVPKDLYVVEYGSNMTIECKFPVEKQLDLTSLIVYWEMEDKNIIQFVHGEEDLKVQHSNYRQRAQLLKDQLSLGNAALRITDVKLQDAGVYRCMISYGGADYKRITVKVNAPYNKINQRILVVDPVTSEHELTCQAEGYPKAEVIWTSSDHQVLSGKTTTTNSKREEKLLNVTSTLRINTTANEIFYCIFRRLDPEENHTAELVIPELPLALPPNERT
T2 sequence (Q9NZQ7 19-239 limits assumed): as the sequence (G7PSE7 entry or part of it) above, with T33A, S34A, N62S, Q68R, R82Q, L173F, A185T, I192T, L215H counted along it

B1: FIT1014-20a (bispecific antibody, human IgG1, kappa, L234A L235A)
chain 1: DIQMTQSPSSVSASVGDRVTITCKASQDVGTAVAWYQQKPGKAPKLLIYWASTRHTGVPSRFSGSGSGTDFTLTISSLQPEDFATYYCQQYSSYPYTFGGGTKVEIKRTVAAPSVFIFPPSDEQLKSGTASVVCLLNNFYPREAKVQWKVDNALQSGNSQESVTEQDSKDSTYSLSSTLTLSKADYEKHKVYACEVTHQGLSSPVTKSFNRGECEVQLQQSGAEVKKPGSSVKVSCKASGHAFSSSWMNWVKQRPGKGLEWIGRIYPGDEITNYNAKFKDKATLTADKSTSTAYMELSSLRSEDTAVYYCARDLLMPYWGQGTLVTVSSASTKGPSVFPLAPSSKSTSGGTAALGCLVKDYFPEPVTVSWNSGALTSGVHTFPAVLQSSGLYSLSSVVTVPSSSLGTQTYICNVNHKPSNTKVDKKVEPKSCDKTHTCPPCPAPEAAGGPSVFLFPPKPKDTLYITREPEVTCVVVDVSHEDPEVKFNWYVDGVEVHNAKTKPREEQYNSTYRVVSVLTVLHQDWLNGKEYKCKVSNKALPAPIEKTISKAKGQPREPQVYTLPPSREEMTKNQVSLTCLVKGFYPSDIAVEWESNGQPENNYKTTPPVLDSDGSFFLYSKLTVDKSRWQQGNVFSCSVMHEALHNHYTQKSLSLSPGK
chain 2: EVQLVQSGSELKKPGASVKVSCKASGYTFTTYGINWVRQAPGQGLEWMGYIYIGNAYTEYNEKFKGRFVFSLDTSVSTAYLQISSLKAEDTAVYYCARDLMVIAPKTMDYWGQGTTVTVSSASTKGPSVFPLAPSSKSTSGGTAALGCLVKDYFPEPVTVSWNSGALTSGVHTFPAVLQSSGLYSLSSVVTVPSSSLGTQTYICNVNHKPSNTKVDKKVEPKSC
chain 3: DIVMTQTPLSLPVTPGEPASISCRSSKSLLYSNAITYLYWYLQKPGQSPQLLIYQMSNLAPGVPDRFSSSGSGTDFTLKISRVEAEDVGVYYCAQNLELPFTFGQGTKLEIKRTVAAPSVFIFPPSDEQLKSGTASVVCLLNNFYPREAKVQWKVDNALQSGNSQESVTEQDSKDSTYSLSSTLTLSKADYEKHKVYACEVTHQGLSSPVTKSFNRGEC
notes: Hexamer of three component polypeptide chains (two of each); outer Fab anti-PD-L1 (HuEM0005-86-64), inner Fab anti-OX40 (HuEM1007-44-16); also called FIT1014-20a (YTE); PD-L1/OX40 FIT-Ig
In test [1], B1 returned a Kd of 5.13 nM, a koff of 0.0004 s⁻¹ and a kon of 78000 M⁻¹ s⁻¹. Also, in test [2], the Kd is 0.587 nM, the koff came out at 0.000276 s⁻¹ and the kon is 470000 M⁻¹ s⁻¹. In addition, the “IC50 (read off the curve)” value in test [3] was around 0.8 nM. Moreover, in test [4], the Kd was found to be 0.255 nM, the off-rate (koff) was determined as 0.000158 s⁻¹ and the kon amounted to 620000 M⁻¹ s⁻¹. Besides, in test [5], the “EC50 (read off the curve)” value is around 1 nM.

B2: HuEM0005-86-64 (antibody, human IgG1, kappa, L234A L235A, V domains shown)
VH: EVQLVQSGSELKKPGASVKVSCKASGYTFTTYGINWVRQAPGQGLEWMGYIYIGNAYTEYNEKFKGRFVFSLDTSVSTAYLQISSLKAEDTAVYYCARDLMVIAPKTMDYWGQGTTVTVSS
VL: DIQMTQSPSSVSASVGDRVTITCKASQDVGTAVAWYQQKPGKAPKLLIYWASTRHTGVPSRFSGSGSGTDFTLTISSLQPEDFATYYCQQYSSYPYTFGGGTKVEIKR
notes: Humanized anti-PD-L1; same as HuEM0005-86-21 except Q1E and C82aS (Kabat) in VH; also called parental anti-PD-L1 monoclonal antibody; parental PD-L1 antibody
Take B2: in test [3], the “IC50 (read off the curve)” value is around 0.8 nM. The “EC50 (read off the curve)” value in test [5] was around 0.8 nM.
